Assay results as given in patent US20100159529, “DRY COMPOSITION OF REACTION COMPOUNDS WITH STABILIZED POLMERASE” (published 2010).

Columns and labels:
Taq DNA polymerase [1] = biological target: T1, Taq DNA polymerase (UniProt P19821 P19821:1-832); assay: cell_free PCR activity after drying, other; indirect functional evidence: aptamer (0.65 pmol/U Taq) preserves qPCR activity after drying with primers/probes and 1 week at 37 C; Wsebi casein Cp 24.0 vs no; details: tags: glycerol free; Roche AptaTaq when complexed with aptamer
T1 sequence (P19821 whole entry, one chain of several): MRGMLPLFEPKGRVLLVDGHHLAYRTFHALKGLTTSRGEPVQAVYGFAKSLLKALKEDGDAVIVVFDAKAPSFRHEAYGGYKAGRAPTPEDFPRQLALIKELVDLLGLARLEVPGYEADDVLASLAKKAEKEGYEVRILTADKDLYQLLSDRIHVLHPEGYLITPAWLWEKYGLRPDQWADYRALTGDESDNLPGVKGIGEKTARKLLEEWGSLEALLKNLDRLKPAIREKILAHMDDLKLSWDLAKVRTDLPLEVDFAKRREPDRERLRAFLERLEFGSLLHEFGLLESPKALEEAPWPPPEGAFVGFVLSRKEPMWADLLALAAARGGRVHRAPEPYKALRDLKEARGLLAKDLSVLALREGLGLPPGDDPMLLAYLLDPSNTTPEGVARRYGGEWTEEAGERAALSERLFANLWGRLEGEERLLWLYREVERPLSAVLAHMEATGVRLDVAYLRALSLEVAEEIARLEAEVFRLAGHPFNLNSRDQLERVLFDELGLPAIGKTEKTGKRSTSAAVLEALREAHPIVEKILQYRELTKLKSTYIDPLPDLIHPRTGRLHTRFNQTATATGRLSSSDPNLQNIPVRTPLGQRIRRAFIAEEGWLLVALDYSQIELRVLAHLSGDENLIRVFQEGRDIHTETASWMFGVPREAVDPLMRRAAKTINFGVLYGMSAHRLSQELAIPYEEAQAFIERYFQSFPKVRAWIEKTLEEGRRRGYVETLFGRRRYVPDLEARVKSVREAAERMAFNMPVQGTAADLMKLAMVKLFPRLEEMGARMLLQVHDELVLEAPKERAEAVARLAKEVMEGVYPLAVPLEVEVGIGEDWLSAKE
Experimental: The PCR performance of the polymerase after storage and re-solubilization was analyzed with and without detection mix (with or without primers and probes) using two different parameters. The liquid mixtures were dried 16 hours at 200 mbar and stored for 1 week at 37° C. prior to re-solubilization. As a control a liquid mixture without drying was used, too (called liquid reference in the following).
All mixtures were provided within wells of a 384 microtiter plate (Roche Diagnostic GmbH) and after the re-solubilization a PCR run was performed on the LightCycler®480 (Roche Diagnostic GmbH) using the following run protocol: [0123] 5 minutes 95° C. [0124] 10 seconds 95° C., 30 seconds 60° C., 1 second 72° C. (45×) [0125] 10 seconds 40° C.

Taq DNA polymerase [2] = biological target: T1, Taq DNA polymerase; assay: indirect functional evidence: 0.5 uM aptamer with 0.8 U/ul Taq preserves qPCR activity after drying with primers/probes and 1 week at 37 C; Wsebi Cp 24.8 vs liquid reference 24.7; 60 mM Tris pH 8.3, 60 mM KCl, 6.4 mM MgCl2; binding not measured directly; details: tags: glycerol free; Roche AptaTaq when complexed with aptamer
Experimental: The PCR performance of the polymerase with both aptamers were analyzed with detection mix (with primers and probes) after storage and re-solubilization using two different parameters. The liquid mixtures were dried 16 hours at 200 mbar and stored for 1 week at 37° C. prior to re-solubilization. As a control a liquid mixture without drying was used, too (called liquid reference in the following).

Binder	binding result (Taq DNA polymerase [1])	binding result (Taq DNA polymerase [2])
CGATCATCTCAGAACATTCTTAGCGTTTTGTTCTTGTGTATGATCG (ssDNA) [NTQ12-46A]	binds	
GATCATCTCAGAACATTCTTAGCGTTTTGTTCTTGTGTATGA (ssDNA) [21-42-P (also printed 21-41-P)]		binds
